To fix the notation:
T1: AtTIFY1 (Arabidopsis thaliana, UniProt Q9LRH6 1-309)
T1 sequence: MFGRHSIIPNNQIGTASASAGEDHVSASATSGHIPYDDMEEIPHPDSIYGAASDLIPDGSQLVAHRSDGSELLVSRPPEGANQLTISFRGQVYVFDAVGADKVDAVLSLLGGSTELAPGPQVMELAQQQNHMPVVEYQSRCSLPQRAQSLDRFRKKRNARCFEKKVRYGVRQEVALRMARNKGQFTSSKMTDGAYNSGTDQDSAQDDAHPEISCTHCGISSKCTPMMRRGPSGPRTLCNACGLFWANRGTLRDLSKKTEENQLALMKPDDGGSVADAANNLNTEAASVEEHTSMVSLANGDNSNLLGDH

B1: 227 (dsDNA)
DNA 1: AAAAAAGGCTCCGGCCCCCAATCGCAAAAA
DNA 2: TTTTTGCGATTGGGGGCCGGAGCCTTTTTT
B2: 305 (dsDNA)
DNA 1: AAAAAACGCTTTCAGTTTTGATCTTAAAAA
DNA 2: TTTTTAAGATCAAAACTGAAAGCGTTTTTT
B3: 130 (dsDNA)
DNA 1: AAAAAACGCAACTCCGGATGTGGGGTAAAA
DNA 2: TTTTACCCCACATCCGGAGTTGCGTTTTTT
B4: 290 (dsDNA)
DNA 1: AAAAAATGTCTAGACTCGGACATTCGAAAA
DNA 2: TTTTCGAATGTCCGAGTCTAGACATTTTTT
B5: 160 (dsDNA)
DNA 1: AAAAAACGGTCGCGATCGTTAATGATAAAA
DNA 2: TTTTATCATTAACGATCGCGACCGTTTTTT
B6: 15 (dsDNA)
DNA 1: AAAAAAATCCGATCGATGCATATATAAAA
DNA 2: TTTTATATATGCATCGATCGGATTTTTTT
B7: 314 (dsDNA)
DNA 1: AAAAAATTGGCACACATGATCTCGGGAAAA
DNA 2: TTTTCCCGAGATCATGTGTGCCAATTTTTT
B8: 334 (dsDNA)
DNA 1: AAAAAATTCCGGCTTGACGCTGCATAAAAA
DNA 2: TTTTTATGCAGCGTCAAGCCGGAATTTTTT
B9: 204 (dsDNA)
DNA 1: AAAAAAGGAAGTACTGACGATCTGGAAAAA
DNA 2: TTTTTCCAGATCGTCAGTACTTCCTTTTTT
B10: 300 (dsDNA)
DNA 1: AAAAAACTCGCGCTTGCATCTGTGCGAAAA
DNA 2: TTTTCGCACAGATGCAAGCGCGAGTTTTTT
B11: 201 (dsDNA)
DNA 1: AAAAAAGATCTAGGCCTTGGGACTCAAAAA
DNA 2: TTTTTGAGTCCCAAGGCCTAGATCTTTTTT
B12: 238 (dsDNA)
DNA 1: AAAAAATCGGGGATCCGGGCGGTTGCAAAA
DNA 2: TTTTGCAACCGCCCGGATCCCCGATTTTTT
B13: 32 (dsDNA)
DNA 1: AAAAAACCTACGATGGTTCTGATCTTAAAA
DNA 2: TTTTAAGATCAGAACCATCGTAGGTTTTTT
B14: 234 (dsDNA)
DNA 1: AAAAAAGGTCTGGACGATCACCGGGAAAAA
DNA 2: TTTTTCCCGGTGATCGTCCAGACCTTTTTT
B15: probe 38 version with palindromic TGATCA (dsDNA)
DNA 1: AAAAAATTTATACTTGATCATGGCTTAAAA
DNA 2: TTTTAAGCCATGATCAAGTATAAATTTTTT

One data set concerns the target T1, AtTIFY1. The data set is described as follows: DPI-ELISA; DPI-ELISA, streptavidin 384-well plate, 1-2 pmol biotinylated dsDNA per well, crude native E. coli extract, anti-His detection; buffer as in Brand et al. [46],; high values mean tight binding. As to conditions: tags: C-terminal His (pET-DEST42); label: 5' biotin on forward strand. (ELISA stands for enzyme-linked immunosorbent assay.)
On to B1, for which the binding signal was 1.44 relative normalized absorbance. The same measure, in the same setting: with B2 the figure was 1.55 relative normalized absorbance; with B3, 1.54 relative normalized absorbance; with B4, 1.52 relative normalized absorbance. Take B5: the binding signal was 1.47 relative normalized absorbance.

For B6, the binding signal is 1.63 relative normalized absorbance. Regarding B7, the binding signal is 1.5 relative normalized absorbance. With B8, the binding signal is 1.43 relative normalized absorbance.

As to B9, the binding signal was 1.52 relative normalized absorbance. Take B10: the binding signal was 1.45 relative normalized absorbance. For the molecule B11, the binding signal is 1.81 relative normalized absorbance.

As for B12, the binding signal was 1.69 relative normalized absorbance. As to B13, the binding signal was 1.8 relative normalized absorbance. Regarding B14, the binding signal is 1.7 relative normalized absorbance.

In another data set the target is WRKY33 cDBD (Arabidopsis thaliana, UniProt Q8S8P5 345-449). The data set is described as above. The following applies: tags: C-terminal His (pET-DEST42); label: 5' biotin on forward strand.
Chain of WRKY33 cDBD (Q8S8P5 other isoform, or with tags, fused parts or gaps): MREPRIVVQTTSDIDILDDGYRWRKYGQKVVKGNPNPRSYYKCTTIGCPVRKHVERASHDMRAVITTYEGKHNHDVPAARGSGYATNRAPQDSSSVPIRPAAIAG
In the case of B5, the binding signal is 2.05 relative normalized absorbance.

The target of a further data set is T1, AtTIFY1. The data set is described as follows: DPI-ELISA; highest affinity; DPI-ELISA on streptavidin plates with biotinylated dsDNA (1 pmol in Figure S1, 2 pmol in Figure 1 legend) and crude E. coli extract; anti-His detection; buffer, pH and temperature not given (ref 46). The following applies: protein: recombinant; tags: C-terminal His (pET-DEST42); label: 5' biotin on forward strand; blunt.
As for B15, the binding result is listed as “binds”.

The values above are taken from paper PMC3795721, “Screening for Protein-DNA Interactions by Automatable DNA-Protein Interaction ELISA”.
